Test results: ChEMBL document CHEMBL2074354, “Chlorambucil-taurocholate is transported by bile acid carriers expressed in human hepatocellular carcinomas” (Gastroenterology, 1997)

Substrate: [H][C@]12CC[C@]3([H])[C@]([H])(C[C@H](O)[C@]4(C)C(C(C)CCC(=O)NCCS(=O)(=O)O)CC[C@@]34[H])[C@@]1(C)CC[C@H](OCCNC(=O)CCCc1ccc(N(CCCl)CCCl)cc1)C2
Assay: TP_TRANSPORTER: uptake in Xenopus laevis oocytes
Format: functional, cell-based, Oocyte

B1: Hepatic sodium/bile acid cotransporter (Homo sapiens) (protein)
chain: MEAHNASAPFNFTLPPNFGKRPTDLALSVILVFMLFFIMLSLGCTMEFSKIKAHLWKPKGLAIALVAQYGIMPLTAFVLGKVFRLKNIEALAILVCGCSPGGNLSNVFSLAMKGDMNLSIVMTTCSTFCALGMMPLLLYIYSRGIYDGDLKDKVPYKGIVISLVLVLIPCTIGIVLKSKRPQYMRYVIKGGMIIILLCSVAVTVLSAINVGKSIMFAMTPLLIATSSLMPFIGFLLGYVLSALFCLNGRCRRTVSMETGCQNVQLCSTILNVAFPPEVIGPLFFFPLLYMIFQLGEGLLLIAIFWCYEKFKTPKDKTKMIYTAATTEETIPGALGNGTYKGEDCSPCTA
B1 gave a Km of 11 µM.
